Among the data in patent US20150258192A1, “COMPOSITIONS AND METHODS FOR PREVENTING OR TREATING CHRONIC LUNG ALLOGRAFT DYSFUNCTION (CLAD) AND IDIOPATHIC PULMONARY FIBROSIS (IPF)” (priority 2014, published 2015) are IC50 (radiometric kinase activity assay) values, retold here.

The test addresses MAPKAP-K2(h) (human) (UniProt P49137). The test can be described thus: cell-based or functional assay.

Substance MMI-0100 ([…]; SEQ ID NO: 1) (peptide) had an IC50 (radiometric kinase activity assay) of 22 µM.
